Consider five variants from IntAct's records for PubMed 17392788.

The chains are these.
B1: "Lethal(2) giant larvae protein homolog SRO7" (Saccharomyces cerevisiae), Q12038 (parent)
chain: MFGSKRLKNVKEAFKSLKGQNSETPIENSKASFKSKNSKTSTISKDAKSSSSLKIPISSNNKNKIFSLAETNKYGMSSKPIAAAFDFTQNLLAIATVTGEVHIYGQQQVEVVIKLEDRSAIKEMRFVKGIYLVVINAKDTVYVLSLYSQKVLTTVFVPGKITSIDTDASLDWMLIGLQNGSMIVYDIDRDQLSSFKLDNLQKSSFFPAARLSPIVSIQWNPRDIGTVLISYEYVTLTYSLVENEIKQSFIYELPPFAPGGDFSEKTNEKRTPKVIQSLYHPNSLHIITIHEDNSLVFWDANSGHMIMARTVFETEINVPQPDYIRDSSTNAAKISKVYWMCENNPEYTSLLISHKSISRGDNQSLTMIDLGYTPRYSITSYEGMKNYYANPKQMKIFPLPTNVPIVNILPIPRQSPYFAGCHNPGLILLILGNGEIETMLYPSGIFTDKASLFPQNLSWLRPLATTSMAASVPNKLWLGALSAAQNKDYLLKGGVRTKRQKLPAEYGTAFITGHSNGSVRIYDASHGDIQDNASFEVNLSRTLNKAKELAVDKISFAAETLELAVSIETGDVVLFKYEVNQFYSVENRPESGDLEMNFRRFSLNNTNGVLVDVRDRAPTGVRQGFMPSTAVHANKGKTSAINNSNIGFVGIAYAAGSLMLIDRRGPAIIYMENIREISGAQSACVTCIEFVIMEYGDDGYSSILMVCGTDMGEVITYKILPASGGKFDVQLMDITNVTSKGPIHKIDAFSKETKSSCLATIPKMQNLSKGLCIPGIVLITGFDDIRLITLGKSKSTHKGFKYPLAATGLSYISTVEKNNDRKNLTVIITLEINGHLRVFTIPDFKEQMSEHIPFPIAAKYITESSVLRNGDIAIRVSEFQASLFSTVKEQDTLAPVSDTLYINGIRIPYRPQVNSLQWARGTVYCTPAQLNELLGGVNRPASKYKESIIAEGSFSERSSDDNNANHPEHQYTKPTRKGRNSSYGVLRNVSRAVETRWDAVEDRFNDYATAMGETMNEAVEQTGKDVMKGALGF

The assay covers variants of B1. The following applies: with sec9_yeast SEC9, P40357.
Sequence of sec9_yeast SEC9, P40357 (P40357 whole entry): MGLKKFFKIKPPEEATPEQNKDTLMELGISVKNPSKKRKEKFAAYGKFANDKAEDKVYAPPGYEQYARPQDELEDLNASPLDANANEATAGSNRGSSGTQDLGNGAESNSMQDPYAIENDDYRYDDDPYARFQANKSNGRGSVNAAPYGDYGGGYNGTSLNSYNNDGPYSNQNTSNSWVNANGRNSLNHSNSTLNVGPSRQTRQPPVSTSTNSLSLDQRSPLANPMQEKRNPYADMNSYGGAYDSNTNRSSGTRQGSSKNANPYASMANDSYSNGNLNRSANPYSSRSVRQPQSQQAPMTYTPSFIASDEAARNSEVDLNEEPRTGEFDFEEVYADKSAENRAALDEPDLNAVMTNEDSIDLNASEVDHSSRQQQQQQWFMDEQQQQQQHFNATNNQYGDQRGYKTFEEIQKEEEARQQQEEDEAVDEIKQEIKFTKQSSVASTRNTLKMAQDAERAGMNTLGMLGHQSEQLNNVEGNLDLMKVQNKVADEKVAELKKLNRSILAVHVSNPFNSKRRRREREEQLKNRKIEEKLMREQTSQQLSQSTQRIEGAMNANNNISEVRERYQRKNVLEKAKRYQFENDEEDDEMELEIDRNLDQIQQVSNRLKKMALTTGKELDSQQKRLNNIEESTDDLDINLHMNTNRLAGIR
On to P721A, for which the “effect of a mutation on the interaction” value is recorded as “disrupting interaction strength”.

Turning to M764A, the “effect of a mutation on the interaction” value is listed as “decreasing interaction strength”.

On to E562A, for which the “effect of a mutation on the interaction” value is given as “decreasing interaction strength”. With Y700A, the “effect of a mutation on the interaction” value is reported as “disrupting interaction strength”. With R664A, the “effect of a mutation on the interaction” value is “decreasing interaction strength”.
